Measurements as given in patent US20240067944A1 (published 2024).

Assays:
[1] = biological target: T1, human plasma-derived FX (Haematologic Technologies Inc, USA) (human, UniProt P00742 41-179; P00742 183-488); experiment: cell-based or functional assay
[2] = biological target: T1, human plasma-derived FX (Haematologic …); experiment: SPR, FX captured on immobilised anti-GLA-FX antibody, steady state analysis, 25 C
Method: Briefly, an anti-GLA-FX, prepared recombinantly as described above, was immobilised on a CM4 sensor chip or a Xantec HLC200M using standard amine coupling chemistry at pH 5. 10 nM FX (Haematologic Technologies, USA) was injected at a flow rate of 10 μL/min for 30 seconds. Subsequently 1000, 100, 10, 1, 0.1 and 0 nM of VHH polypeptide compound, according to Table 9, below were injected at a flow rate of 50 μL/min for 200 seconds to allow for binding to FX followed by a flow of 10 minutes with a running buffer (10 mM HEPES, 150 mM NaCl, 5 mM CaCl₂), 0.05% (v/v) Surfactant P20, 1 mg/mL bovine serum albumin, pH 7.4) injection allowing for dissociation from FX. The running buffer was also used for dilution of anti-FX VHH polypeptide compounds. Regeneration of the chip was achieved using a regeneration buffer consisting of 50 mM EDTA in running buffer, 30 seconds contact time, and a 30 μL/min flow rate. The binding data were collected at 25° C. and were analysed according to a 1:1 model using BiaEvaluation 4.1 supplied by the manufacturer (Biacore AB, Uppsala or Bruker Analyser).
(§1) Therefore, the reported KD values are determined based on steady state analysis.

[3] = biological target: T2, Benefix (Pfizer Inc, USA), FIX (human, UniProt P00740 47-461); experiment: SPR, FIX (Benefix) captured on immobilised anti-GLA-FIX antibody, steady state analysis, 25 C
T2 construct: Bought product; also called FIX (Benefix®)
T2 sequence (P00740 47-461 T194A limits assumed): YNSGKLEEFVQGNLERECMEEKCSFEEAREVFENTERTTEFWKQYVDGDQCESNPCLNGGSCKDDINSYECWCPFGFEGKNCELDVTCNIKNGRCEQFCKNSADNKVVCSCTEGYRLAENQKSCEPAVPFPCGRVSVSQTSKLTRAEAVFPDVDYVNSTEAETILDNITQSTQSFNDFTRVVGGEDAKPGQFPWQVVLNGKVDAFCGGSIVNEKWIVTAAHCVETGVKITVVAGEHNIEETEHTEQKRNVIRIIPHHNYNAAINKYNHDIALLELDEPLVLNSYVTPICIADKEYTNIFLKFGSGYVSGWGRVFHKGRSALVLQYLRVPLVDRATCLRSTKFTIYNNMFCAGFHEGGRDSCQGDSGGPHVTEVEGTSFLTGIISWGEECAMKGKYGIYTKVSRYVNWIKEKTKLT
Method: Briefly, anti-GLA-FIX, prepared recombinantly as described above, was immobilised on a CM4 sensor chip or a Xantec HLC200M using standard amine coupling chemistry at pH 5. FIX (10 nM) was injected at a flow rate of 10 μL/min for 1 minute. Subsequently 1000, 100, 10, 1, 0.1 and 0 nM of VHH polypeptide compound were injected at a flow rate of 30 μL/min for 4 minutes to allow for binding to the FIX (Benefix®) followed by a flow of 5 minutes running buffer (10 mM HEPES, 150 mM NaCl, 5 mM CaCl₂), 0.05% (v/v) Surfactant P20, 1 mg/mL bovine serum albumin, pH 7.4) injection allowing for dissociation from FIX. The running buffer was also used for dilution of anti-FIX VHH polypeptide compounds. Regeneration of the chip was achieved using a regeneration buffer consisting of 50 mM EDTA in running buffer, 30 seconds contact time, and a 30 μL/min flow rate. The binding data were collected at 25° C. and were analysed according to a 1:1 model using BiaEvaluation 4.1 supplied by the manufacturer (Biacore AB, Uppsala).
as §1

T1 sequence (P00742 41-179, chain 1 of 2): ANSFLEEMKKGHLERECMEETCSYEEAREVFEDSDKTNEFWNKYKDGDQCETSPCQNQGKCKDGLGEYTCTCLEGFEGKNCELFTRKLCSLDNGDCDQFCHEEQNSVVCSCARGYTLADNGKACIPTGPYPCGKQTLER
T1 sequence (P00742 183-488, chain 2 of 2): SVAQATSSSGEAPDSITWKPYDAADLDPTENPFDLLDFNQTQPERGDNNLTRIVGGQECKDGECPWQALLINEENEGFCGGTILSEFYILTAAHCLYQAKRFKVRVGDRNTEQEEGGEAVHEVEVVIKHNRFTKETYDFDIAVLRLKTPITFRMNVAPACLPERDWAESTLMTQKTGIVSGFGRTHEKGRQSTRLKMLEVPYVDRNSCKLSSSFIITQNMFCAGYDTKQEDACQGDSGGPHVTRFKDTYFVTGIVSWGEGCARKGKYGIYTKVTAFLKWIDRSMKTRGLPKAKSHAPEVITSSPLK

| Binder | KM (nM) of FX activation by 0.1 nM FIXa on phospholipid vesicles with 5 nM compound [1] [nM] | kcat/KM (1/(min * nM)) of FX activation by 0.1 nM FIXa with 5 nM compound [1] [M⁻¹ s⁻¹] | Kd [2] [µM] | Kd [3] [µM] |
| --- | --- | --- | --- | --- |
| Cmpd #21 (anti-FX/anti-FIX(a) VHH polypeptide derivative) (bispecific antibody, C16 diacid protractor (P2) via linker LP1 on Cys4 and Cys6 in C-term extension (SEQ ID NO: 9)) DVQLVESGGGVVQPGGSLQLSCAASGGTKSRYAMGWFRQAPGQEREFVAAISRRGGSTNYADSVKGRFTISRDNSKNTVYLDMDDLRPEDTALYYCAADDSVGDGYLDYWGQGTLVTVSSGQAPGQEVQLVESGGGVVQPGGSLQLSCAASGRTFNIYTMSWFRQDPGQEREFVAGLRWTDSSTEYADSVKGRFTISRDNSKNTVYLQMDSLRPEDTALYYCAADRSFLFAQALGATKNYEYWGQGTLVTVSSGQACPC | 3.9 | 4.5e+06 | – | – |
| Cmpd #16 (anti-FX/anti-FIX(a) VHH polypeptide derivative) (bispecific antibody, C16 diacid protractor (P2) via linker LP1 on Cys4 and Cys6 in C-term extension (SEQ ID NO: 9)) DVQLVESGGGVVQPGGSLQLSCAASGGTKRRLAMGWFRQAPGQEREWVAAISRRGGSTNYADSVKGRFTISRDNSKNTVYLDMDDLRPEDTALYYCAADDSVGDGYLDYWGQGTLVTVSSGQAPGQEVQLVESGGGVVQPGGSLRLSCAASGRYFNIYTMSWFRQDPGQEREFVAGLRWTDSSTEYADSVKGRFTISRDNSKNTVYLQMNSLRPEDTALYYCAADRSFLFAQALGATKNYEYWGQGTLVTVSSGQACPC | 7.1 | 2.33e+06 | – | – |
| Cmpd #17 (anti-FX/anti-FIX(a) VHH polypeptide derivative) (bispecific antibody, C16 diacid protractor (P2) via linker LP1 on Cys4 and Cys6 in C-term extension (SEQ ID NO: 9)) DVQLVESGGGVVQPGGSLQLSCAASGGTKSRYAMGWFRQAPGQEREWVAAISRRGGSTNYADSVKGRFTISRDNSKNTVYLDMDDLRPEDTALYYCAADDSVGDGYLDYWGQGTLVTVSSGQAPGQEVQLVESGGGVVQPGGSLQLSCAASGRTFNIYTMSWFRQDPGQEREFVAGLRWTDSSTEYADSVKGRFTISRDNSKNTVYLQMDSLRPEDTALYYCAADRSFLFAQALGATKNYEYWGQGTLVTVSSGQACPC | 9 | 2.5e+06 | – | – |
| Cmpd #19 (anti-FX/anti-FIX(a) VHH polypeptide derivative) (bispecific antibody, C16 diacid protractor (P2) via linker LP1 on Cys4 and Cys6 in C-term extension (SEQ ID NO :9)) DVQLVESGGGVVQPGGSLQLSCAASGGTKSRYAMGWFRQAPGQEREWVAAISRRGGSTNYADSVKGRFTISRDNSKNTVYLQMDSLRPEDTALYYCAADDSVGDGYLDYWGQGTLVTVSSGQAPGQEVQLVESGGGVVQPGGSLQLSCAASGRTFNIYTMSWFRQAPGQEREFVAGLRWTDSSTEYADSVKGRFTISRDNSKNTVYLQMDSLRPEDTALYYCAADRSFLFAQALGATKNYEYWGQGTLVTVSSGQACPC | 8.2 | 5e+06 | – | – |
| Cmpd #14 (anti-FX/anti-FIX(a) VHH polypeptide derivative) (bispecific antibody, C16 diacid protractor (P2) via linker LP1 on Cys4 and Cys6 in C-term extension (SEQ ID NO: 9), Single chain of two VHH: anti-FX (N-terminal) and anti-FIX(a) (C-terminal); also called VHH1.14-L1-2-VHH2.14-E) DVQLVESGGGVVQPGGSLQLSCAASGGTKRRLAMGWFRQAPGQEREFVAAISRRGGSTNYADSVKGRFTISRDNSKNTVYLQMDSLRPEDTALYYCAADDSVGDGYLDYWGQGTLVTVSSGQAPGQEVQLVESGGGVVQPGGSLQLSCAASGRTFNIYTMSWFRQAPGQEREFVAGLRWTDSSTEYADSVKGRFTISRDNSKNTVYLQMDSLRPEDTALYYCAADRSFLFAQALGATKNYEYWGQGTLVTVSSGQACPC | – | – | 0.042 | 0.0016 |
| Cmpd #12 (anti-FX/anti-FIX(a) VHH polypeptide derivative) (bispecific antibody, C16 diacid protractor (P2) via linker LP1 on Cys4 and Cys6 in C-term extension (SEQ ID NO: 9), Single chain of two VHH: anti-FX (N-terminal) and anti-FIX(a) (C-terminal); also called VHH1.12-L1-2-VHH2.12-E) DVQLVESGGGVVQPGGSLQLSCAASGGTKRRLAMGWFRQAPGQEREFVAAISRRGGSTNYADSVKGRFTISRDNSKNTVYLDMDDLRPEDTALYYCAADDSVGDGYLDYWGQGTLVTVSSGQAPGQEVQLVESGGGVVQPGGSLQLSCAASGRTFNIYTMSWFRQDPGQEREFVAGLRWTDSSTEYADSVKGRFTISRDNSKNTVYLQMDSLRPEDTALYYCAADRSFLFAQALGATKNYEYWGQGTLVTVSSGQACPC | – | – | 0.026 | 0.0078 |
| Cmpd #7 (anti-FX/anti-FIX(a) VHH polypeptide derivative) (bispecific antibody, C16 diacid protractor (P2) via linker LP1 on Cys4 and Cys6 in C-term extension (SEQ ID NO: 9), Single chain of two VHH: anti-FX (N-terminal) and anti-FIX(a) (C-terminal)) DVQLVESGGGVVQPGGSLQLSCAASGGTKSRYAMGWFRQAPGQEREFVAAISRRGGSTNYADSVKGRFTISRDNSKNTVYLQMDSLRPEDTALYYCAADDSVGDGYLDYWGQGTLVTVSSGQAPGQEVQLVESGGGVVQPGGSLRLSCAASGRTFNIYTMSWFRQAPGQEREFVAGLRWTDSSTEYADSVKGRFTISRDNSKNTVYLQMNSLRPEDTALYYCAADRSFLFAQALGATKNYEYWGQGTLVTVSSGQACPC | – | – | 0.082 | 0.0023 |
| Cmpd #8 (anti-FX/anti-FIX(a) VHH polypeptide derivative) (bispecific antibody, C16 diacid protractor (P2) via linker LP1 on Cys4 and Cys6 in C-term extension (SEQ ID NO: 9), Single chain of two VHH: anti-FX (N-terminal) and anti-FIX(a) (C-terminal)) DVQLVESGGGVVQPGGSLQLSCAASGGTKSRYAMGWFRQAPGQEREFVAAISRRGGSTNYADSVKGRFTISRDNSKNTVYLQMDSLRPEDTALYYCAADDSVGDGYLDYWGQGTLVTVSSGQAPGQEVQLVESGGGVVQPGGSLQLSCAASGRTFNIYTMSWFRQAPGQEREFVAGLRWTDSSTEYADSVKGRFTISRDNSKNTVYLQMDSLRPEDTALYYCAADRSFLFAQALGATKNYEYWGQGTLVTVSSGQACPC | 4.8 | 4.5e+06 | 0.096 | 0.0025 |
| Cmpd #10 (anti-FX/anti-FIX(a) VHH polypeptide derivative) (bispecific antibody, C16 diacid protractor (P2) via linker LP1 on Cys4 and Cys6 in C-term extension (SEQ ID NO: 9), Single chain of two VHH: anti-FX (N-terminal) and anti-FIX(a) (C-terminal)) DVQLVESGGGVVQPGGSLQLSCAASGGTKRRLAMGWFRQAPGQEREWVAAISRRGGSTNYADSVKGRFTISRDNSKNTVYLQMDSLRPEDTALYYCAADDSVGDGYLDYWGQGTLVTVSSGQAPGQEVQLVESGGGVVQPGGSLRLSCAASGRTFNIYTMSWFRQAPGQEREFVAGLRWTDSSTEYADSVKGRFTISRDNSKNTVYLQMNSLRPEDTALYYCAADRSFLFAQALGATKNYEYWGQGTLVTVSSGQACPC | – | – | 0.19 | 0.0055 |
| Cmpd #11 (anti-FX/anti-FIX(a) VHH polypeptide derivative) (bispecific antibody, C16 diacid protractor (P2) via linker LP1 on Cys4 and Cys6 in C-term extension (SEQ ID NO: 9), Single chain of two VHH: anti-FX (N-terminal) and anti-FIX(a) (C-terminal)) DVQLVESGGGVVQPGGSLQLSCAASGGTKRRLAMGWFRQAPGQEREFVAAISRRGGSTNYADSVKGRFTISRDNSKNTVYLDMDDLRPEDTALYYCAADDSVGDGYLDYWGQGTLVTVSSGQAPGQEVQLVESGGGVVQPGGSLRLSCAASGRTFNIYTMSWFRQDPGQEREFVAGLRWTDSSTEYADSVKGRFTISRDNSKNTVYLQMNSLRPEDTALYYCAADRSFLFAQALGATKNYEYWGQGTLVTVSSGQACPC | – | – | 0.042 | 0.0064 |
| Cmpd #9 (anti-FX/anti-FIX(a) VHH polypeptide derivative) (bispecific antibody, C16 diacid protractor (P2) via linker LP1 on Cys4 and Cys6 in C-term extension (SEQ ID NO: 9), Single chain of two VHH: anti-FX (N-terminal) and anti-FIX(a) (C-terminal)) DVQLVESGGGVVQPGGSLQLSCAASGGTKSRYAMGWFRQAPGQEREFVAAISRRGGSTNYADSVKGRFTISRDNSKNTVYLDMDDLRPEDTALYYCAADDSVGDGYLDYWGQGTLVTVSSGQAPGQEVQLVESGGGVVQPGGSLRLSCAASGRTFNIYTMSWFRQDPGQEREFVAGLRWTDSSTEYADSVKGRFTISRDNSKNTVYLQMNSLRPEDTALYYCAADRSFLFAQALGATKNYEYWGQGTLVTVSSGQACPC | – | – | 0.07 | 0.0011 |
| Cmpd #4 (anti-FX/anti-FIX(a) VHH polypeptide derivative) (bispecific antibody, C18 diacid protractor (P3) via linker LP1 on Cys6 in C-term extension (SEQ ID NO: 7), Single chain of two VHH: anti-FX (N-terminal) and anti-FIX(a) (C-terminal)) DVQLVESGGGVVQPGGSLRLSCAASGRTHSRYAMGWFRQAPGKEREFVAAISRRGGSTNYADSVKGRFTISRDNSKNTVYLQMNSLRPEDTALYYCAADDSSGDGYLDYWGQGTLVTVSSGGGGSGGGSEVQLVESGGGVVQPGGSLRLSCAASGRTFNIYTMSWFRQAPGKEREFVAGLRWTDSSTEYADSVKGRFTISRDNSKNTVYLQMNSLRPEDTALYYCAADRSFLFAQALGATKNYEYWGQGTLVTVSSGGGGSCHHHHHH | – | – | 0.229 | 0.0117 |
| Cmpd #5 (anti-FX/anti-FIX(a) VHH polypeptide derivative) (bispecific antibody, C18 diacid protractor (P3) via linker LP1 on Cys6 in C-term extension (SEQ ID NO: 7), Single chain of two VHH: anti-FX (N-terminal) and anti-FIX(a) (C-terminal)) DVQLVESGGGVVQPGGSLQLSCAASGRTHSRYAMGWFRQAPGQEREFVAAISRRGGSTNYADSVKGRFTISRDNSKNTVYLQMDSLRPEDTALYYCAADDSSGDGYLDYWGQGTLVTVSSGGGGSGGGSEVQLVESGGGVVQPGGSLQLSCAASGRTFNIYTMSWFRQAPGQEREFVAGLRWTDSSTEYADSVKGRFTISRDNSKNTVYLQMDSLRPEDTALYYCAADRSFLFAQALGATKNYEYWGQGTLVTVSSGGGGSCHHHHHH | – | – | 0.199 | 0.0027 |
